# Experimental data as given in paper PMC11601596.
# What was measured:
# [1] = target: Citrobacter sp. RHBSTW-00271 BubCD (JAB/JAMM family peptidase-E1 fusion), wild type (Citrobacter sp. RHBSTW-00271); test: crystal structure
# [2] = target: Citrobacter sp. RHBSTW-00271 BubCD D104A peptidase domain mutant (Citrobacter sp. RHBSTW-00271); test: crystal structure
stoichiometry N [1],stoichiometry N [2],Substance
2,,"Citrobacter sp. RHBSTW-00271 BubCD (JAB/JAMM family peptidase-E1 fusion), wild type (enzyme)"
,2,Citrobacter sp. RHBSTW-00271 BubCD D104A peptidase domain mutant (enzyme)
